Data reported in patent US20240076332A1.

Biological target: cell surface bound heterodimeric receptor protein comprising a tyrosine kinase FGFR1c and a beta-Klotho protein (UniProt P11362)
Test: cell-based or functional assay

Chain of UniProt P11362 (P11362 22-822, chain 1 of 2): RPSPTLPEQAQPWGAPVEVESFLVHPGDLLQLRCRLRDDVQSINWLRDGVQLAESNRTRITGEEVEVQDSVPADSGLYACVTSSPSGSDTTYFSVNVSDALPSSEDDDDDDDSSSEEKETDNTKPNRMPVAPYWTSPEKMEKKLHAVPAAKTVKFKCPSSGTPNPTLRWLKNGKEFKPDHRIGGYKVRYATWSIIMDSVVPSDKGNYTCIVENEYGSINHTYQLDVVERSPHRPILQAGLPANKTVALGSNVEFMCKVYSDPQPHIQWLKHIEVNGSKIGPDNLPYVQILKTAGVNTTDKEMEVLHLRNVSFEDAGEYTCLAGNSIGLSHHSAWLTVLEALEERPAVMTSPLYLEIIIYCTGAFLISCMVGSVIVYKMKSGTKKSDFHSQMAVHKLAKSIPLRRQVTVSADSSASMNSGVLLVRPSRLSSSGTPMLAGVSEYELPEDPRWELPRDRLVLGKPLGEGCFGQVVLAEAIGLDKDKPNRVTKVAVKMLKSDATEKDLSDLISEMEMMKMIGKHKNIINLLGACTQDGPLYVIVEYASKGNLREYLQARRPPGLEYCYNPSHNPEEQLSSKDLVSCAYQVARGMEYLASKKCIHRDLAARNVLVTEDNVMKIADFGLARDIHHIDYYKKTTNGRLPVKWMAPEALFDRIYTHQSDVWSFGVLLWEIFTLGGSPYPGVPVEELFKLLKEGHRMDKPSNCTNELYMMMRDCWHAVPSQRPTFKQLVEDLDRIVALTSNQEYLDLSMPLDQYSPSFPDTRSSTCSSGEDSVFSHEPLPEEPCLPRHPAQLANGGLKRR
Chain of UniProt P11362 (Q86Z14 whole entry, chain 2 of 2, further chain): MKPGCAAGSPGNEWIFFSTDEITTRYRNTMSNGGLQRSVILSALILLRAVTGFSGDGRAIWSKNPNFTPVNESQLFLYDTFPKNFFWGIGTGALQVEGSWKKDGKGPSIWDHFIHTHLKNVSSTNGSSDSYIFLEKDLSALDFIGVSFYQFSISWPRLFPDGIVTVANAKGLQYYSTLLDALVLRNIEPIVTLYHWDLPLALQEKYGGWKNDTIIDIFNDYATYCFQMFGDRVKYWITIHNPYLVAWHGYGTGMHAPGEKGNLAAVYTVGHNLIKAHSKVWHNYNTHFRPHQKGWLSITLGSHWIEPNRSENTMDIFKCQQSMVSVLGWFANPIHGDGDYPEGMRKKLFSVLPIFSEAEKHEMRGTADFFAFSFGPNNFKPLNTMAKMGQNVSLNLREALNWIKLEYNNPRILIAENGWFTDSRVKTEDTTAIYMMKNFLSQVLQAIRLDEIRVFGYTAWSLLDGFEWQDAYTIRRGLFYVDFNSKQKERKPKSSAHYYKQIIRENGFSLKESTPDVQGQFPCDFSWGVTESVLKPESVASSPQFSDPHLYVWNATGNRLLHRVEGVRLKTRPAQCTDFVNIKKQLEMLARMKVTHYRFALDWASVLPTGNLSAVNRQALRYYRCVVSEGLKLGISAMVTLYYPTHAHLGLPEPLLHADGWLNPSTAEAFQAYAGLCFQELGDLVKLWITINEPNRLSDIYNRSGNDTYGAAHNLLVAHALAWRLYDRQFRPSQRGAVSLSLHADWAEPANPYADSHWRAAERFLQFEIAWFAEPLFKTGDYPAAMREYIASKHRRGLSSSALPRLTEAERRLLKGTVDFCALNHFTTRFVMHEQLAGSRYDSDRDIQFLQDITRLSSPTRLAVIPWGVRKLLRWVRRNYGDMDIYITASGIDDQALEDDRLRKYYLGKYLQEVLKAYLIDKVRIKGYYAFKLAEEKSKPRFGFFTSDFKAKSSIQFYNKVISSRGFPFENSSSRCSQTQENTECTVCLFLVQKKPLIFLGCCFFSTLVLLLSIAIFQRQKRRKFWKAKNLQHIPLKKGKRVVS

human FGF21 (from UniProt Q9NSA1 29-209) (ligand)
EC50 of firefly luciferase reporter-gene response (Gal4-Elk-1), HEK293 cells with FGFR1c and optimized synthetic beta-Klotho gene, treated with increasing concentrations of human FGF21: 0.003 µg/mL | EC50 of firefly luciferase reporter-gene response, HEK293 cells with FGFR1c and native beta-Klotho gene, freeze, thaw and use format: 0.024 µg/mL | EC50 of firefly luciferase reporter-gene response, HEK293 cells with FGFR1c and optimized synthetic beta-Klotho gene, freeze, thaw and use format: 0.007 µg/mL | EC50 of firefly luciferase reporter-gene response, Jurkat cells transfected with the native beta-Klotho gene (Table 1): 0.172 µg/mL | EC50 of firefly luciferase reporter-gene response, Jurkat cells with FGFR1c and native beta-Klotho gene, freeze, thaw and use format: 0.17 µg/mL
